Numbering of substitutions follows the chain as printed.

Holding throughout (test): FP; 3 nM probe; FP: 50 mM Tris pH 7.5, 50 mM NaCl, 1 mM MgCl2, 0.05% NP40, 2 mM DTT, 5% glycerol, 25 ug/ml BSA, room temp 30 min; EMSA: 50 mM Tris pH 7.5, 50 mM NaCl, 4% Ficoll PM400, 0.05% NP40, 2 mM DTT, 0-18 uM protein, room temp 30 min, gel at 4 C
Conditions in all cases: protein: recombinant; tags: N-terminal His-SUMO removed by TEV; label: 5'-6-FAM; predicted intramolecular fold

The target in data set [1] is T1, PARP4 BRCT K31Q (human, UniProt Q9UKK3 1-100, K31Q).
T1 sequence: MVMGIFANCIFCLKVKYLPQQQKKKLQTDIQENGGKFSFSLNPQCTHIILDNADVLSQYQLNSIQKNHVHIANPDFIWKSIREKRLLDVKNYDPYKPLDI

The target of data set [2] is T2, PARP4 BRCT-WGR-CAT K23/24Q (human, UniProt Q9UKK3 1-573, K23Q;K24Q).
T2 sequence: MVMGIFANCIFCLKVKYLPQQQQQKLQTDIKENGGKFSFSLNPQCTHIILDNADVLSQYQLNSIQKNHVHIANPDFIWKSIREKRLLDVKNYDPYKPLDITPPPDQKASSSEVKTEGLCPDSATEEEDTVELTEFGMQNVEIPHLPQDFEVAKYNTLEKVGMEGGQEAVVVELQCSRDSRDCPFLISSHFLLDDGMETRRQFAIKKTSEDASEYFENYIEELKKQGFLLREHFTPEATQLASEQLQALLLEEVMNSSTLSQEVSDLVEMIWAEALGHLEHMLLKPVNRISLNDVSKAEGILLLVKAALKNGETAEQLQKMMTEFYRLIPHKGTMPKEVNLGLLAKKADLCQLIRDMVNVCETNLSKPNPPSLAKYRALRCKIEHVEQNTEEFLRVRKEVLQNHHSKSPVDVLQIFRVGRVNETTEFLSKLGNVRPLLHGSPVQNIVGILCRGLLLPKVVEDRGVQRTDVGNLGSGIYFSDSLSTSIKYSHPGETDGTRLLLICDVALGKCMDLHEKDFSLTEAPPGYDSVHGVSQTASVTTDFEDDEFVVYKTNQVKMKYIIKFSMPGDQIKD

Data set [3] concerns the target T3, PARP4 BRCT F39A (human, UniProt Q9UKK3 1-100, F39A).
T3 sequence: T1 sequence with Q31K, F39A

The target of data set [4] is T4, PARP4 BRCT F39Q (human, UniProt Q9UKK3 1-100, F39Q).
T4 sequence: T1 sequence with Q31K, F39Q

The target in data set [5] is T5, PARP4 BRCT WT (human, UniProt Q9UKK3 1-100).
T5 sequence: T1 sequence with Q31K

Data set [6] deals with T6, PARP4 BRCT K23/24Q (human, UniProt Q9UKK3 1-100, K23Q;K24Q).
T6 sequence: T1 sequence with K23Q, K24Q, Q31K

B1: vtRNA1-3 (structured_RNA)
RNA: GGCUGGCUUUAGCUCAGCGGUUACUUCGCGUGUCAUCAAACCACCUCUCUGGGUUGUUCGAGACCCGCGGGCGCUCUCCAGCCCUCUU
With B1, the Kd was 61 ± 12 µM in data set [1]; 71 ± 26 µM in data set [2]; 33 ± 2 µM in data set [3]; 35 ± 10 µM in data set [4]; 19 ± 4 µM in data set [5]. Moreover, in data set [6], the binding result was “no binding”.

A word on the Kd: it is a measure of binding affinity in units of concentration.

The record behind these values is paper PMC12212138, “Crystal structure and mutagenesis of a nucleic acid–binding BRCT domain in human PARP4”.
